From article PMC6849348, “Theranostic Application of a Novel G-Quadruplex-Forming DNA Aptamer Targeting Malate Synthase of Mycobacterium tuberculosis” (Molecular Therapy. Nucleic Acids, 2019) come the findings set out here.

The target of the data set is malate synthase (MS, GlcB) (Mycobacterium tuberculosis) (UniProt P9WK17). Briefly: SPR.
malate synthase (MS, GlcB) (Mycobacterium tuberculosis), sequence (P9WK17 whole entry): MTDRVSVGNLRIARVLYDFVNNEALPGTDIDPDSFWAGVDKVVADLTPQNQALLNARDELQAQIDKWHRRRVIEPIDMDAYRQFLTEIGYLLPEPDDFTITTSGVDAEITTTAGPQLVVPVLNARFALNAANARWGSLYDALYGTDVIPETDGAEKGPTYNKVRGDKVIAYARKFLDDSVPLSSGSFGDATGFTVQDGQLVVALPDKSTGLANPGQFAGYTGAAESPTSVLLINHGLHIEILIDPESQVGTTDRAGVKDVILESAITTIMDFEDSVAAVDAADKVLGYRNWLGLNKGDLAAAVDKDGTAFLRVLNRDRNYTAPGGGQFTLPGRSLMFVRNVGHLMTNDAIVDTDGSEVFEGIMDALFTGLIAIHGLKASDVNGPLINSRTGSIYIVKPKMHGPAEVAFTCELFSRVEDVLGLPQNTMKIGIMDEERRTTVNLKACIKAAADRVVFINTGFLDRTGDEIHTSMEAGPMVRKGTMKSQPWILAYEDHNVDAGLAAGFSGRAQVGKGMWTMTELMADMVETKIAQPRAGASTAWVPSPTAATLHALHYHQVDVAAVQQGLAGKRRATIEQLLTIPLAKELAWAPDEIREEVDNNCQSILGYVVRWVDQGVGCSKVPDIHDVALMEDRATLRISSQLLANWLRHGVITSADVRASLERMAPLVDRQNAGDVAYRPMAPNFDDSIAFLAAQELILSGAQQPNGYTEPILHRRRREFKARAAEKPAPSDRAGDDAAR
In turn, “GCAGAGAGAGAGAAAGTGAGAAGGGCGGGGGGGAGAGGGTGGGG [MS5]” registered a Kd of 2700 nM.
The value for “GGTGGGATGGGGGGGGGAGGGTAGGGTGTGCAAGTAGAGGGTC [MS6]” was 0.28 nM.
The value for “GGGTTGTAAGAGGGAGCTGGGAGGGGTCGGGGGGGGGGGTGGC [MS20]” was 910 nM.
For “GGACCAGGTGAGTGGATGCGGGTGCGGGTGGGGGTGAGGGGGGG [MS4]”, the equilibrium dissociation constant (Kd) worked out at 9.9 nM. Compared with the last sequence, the Kd is about 92-fold lower.
